Measured values as given in patent publication US20120094909A1 (Bristol-Myers Squibb, published 2012).
Substitutions are numbered along the chain they refer to. Like-named read-outs stand apart in the source and are kept apart here.

B1: 2381D04 (designed binder)
chain: MGVSDVPRDLEVVAATPTSLLISWEPFSRLPGGGEYYRITYGETGGNSPLQQFTVPGSKGTATISGLKPGVDYTITVYAVEFPYDHSGYYHRPISINYRTEIDKPSQHHHHHH
notes: Anti-PCSK9 Adnectin, His6-tagged
B2: 2381B04 (designed binder)
chain: B1 chain with F82Y, D85E
notes: as for B1
B3: 2381B02 (designed binder)
chain: B1 chain with F82Y, H86Y
notes: as for B1
B4: 2382F05 (designed binder)
chain: MGVSDVPRDLEVVAATPTSLLISWDAPAEAGKHYGYYRITYGETGGNSPVQEFTVPVSKGTATISGLKPGVDYTITVYAVEFDFPGAGYYHRPISINYRTEIDKPSQHHHHHH
notes: as for B1
B5: 2381B08 (designed binder)
chain: MGVSDVPRDLEVVAATPTSLLISWDAPADGGYGYYRITYGETGGNSPVQEFTVPSSKGTATISGLKPGVDYTITVYAVEYTFPGAGYYHRPISINYRTEIDKPSQHHHHHH
notes: as for B1
B6: 2382D03 (designed binder)
chain: B5 chain with G30E, G31A, S55V, Y80F, T81D
notes: as for B1
B7: 2381F11 (designed binder)
chain: B5 chain with S55V, G58S
notes: as for B1
B8: 2382C05 (designed binder)
chain: B5 chain with G31A, S55V, T81S
notes: as for B1
B9: 2381H09 (designed binder)
chain: B5 chain with D29G, S55V, Y80F, T81D, P83V
notes: as for B1
B10: 2382H03 (designed binder)
chain: B5 chain with D29E, G31A, S55V, T81P, F82Y, G84F
notes: as for B1
B11: 2381G09 (designed binder)
chain: B5 chain with D29G, G30D, S55V, Y80F
notes: as for B1
B12: 2382E05 (designed binder)
chain: B5 chain with D29E, S55V, Y80F, T81D
notes: as for B1
B13: 2382E03 (designed binder)
chain: B5 chain with D29G, G30D, S55V, Y80F, T81D
notes: as for B1
B14: 2382G04 (designed binder)
chain: B5 chain with D29G, Y80F, T81D
notes: as for B1
B15: 1922G04 (designed binder)
chain: MGVSDVPRDLEVVAATPTSLLISWRPPSHAYGYYRITYGETGGNSPVQEFTVPIGKGTATISGLKPGVDYTITVYAVEYPWKGSGYYHRPISINYRTEIDKPSQHHHHHH
notes: also called ATI001057; ATI-1057
B16: 1923B02 (designed binder)
chain: B15 chain with R25T, S28P, H29K, A30G, I54V, K56E, P80T, W81Y, K82N, S84A
B17: 2382H10 (designed binder)
chain: MGVSDVPRDLEVVAATPTSLLISWDAPAGGYGYYRITYGETGGNSPVQEFTVPVSKGTATISGLKPGVDYTITVYAVEFDFPGSGYYHRPISINYRTEIDKPSQHHHHHH
notes: as for B1
B18: 1813E02 (designed binder)
chain: B15 chain with R25S, S28A, H29N, A30G, I54V, K56R, P80T, W81Y
notes: as for B1
B19: 2451H07 (designed binder)
chain: MGITDVPRDLEVVAATPTSLLISWNPPDVNYGYYRITYGETGGNSPLQEFTVPVSKGTATISGLKPGVDYTITVYAVEYPYAHAGYYHRPISINYRTEIDKPSQHHHHHH
notes: as for B1
B20: 1784F03 (designed binder)
chain: B15 chain with S28I, G55V, K56E, P80T, W81F, G83H
notes: as for B1
B21: 2451C06 (designed binder)
chain: MGVSDVPRDLEVVAATPTSLLISWDAPAGAASYGYYRITYGETGGNSPVQEFTVPVSKGTATISGLKPGVDYTITVYAVEFPFPGAGYYHRPISINYRTEIDKPSQHHHHHH
notes: as for B1

Experiments:
[1] = molecular target: T1, human PCSK9 (proprotein convertase subtilisin kexin type 9) (human, UniProt Q8NBP7 31-692); test: FRET, competitor ATI001125
T1 construct: Directly immobilized (SPR ProteOn), biotinylated (BLI), or in solution, depending on the assay; also called hPCSK9
Description: (§1) Table 11 summarizes the overall data from these three FRET assays.

[2] = molecular target: T1, human PCSK9 (proprotein convertase …); test: BLI, biotinylated hPCSK9 on sensor tips
Procedure: (§2) Tips were then immersed into a buffer-only well for observation of Adnectin dissociation. Experiments were performed in a temperature controlled environment at either 25 or 37° C., and the oscillation speed was set at 1500 rpm.
(§3) Binding interaction analysis was performed using proprietary software from Fortebio (Fortebio Data Analysis Software version 6.3.0.36). Global fits were performed for all samples, using a 1:1 binding model. The nature of these global fits constrained all values of concentration to a single pair of association and dissociation rates that were themselves constrained to each other. Affinities (KD), association and dissociation rates were averaged over the various loading levels used in the analysis.

[3] = molecular target: T1, human PCSK9 (proprotein convertase …); test: FRET direct binding, anti-his6 antibody
Description: as §1

[4] = molecular target: T1, human PCSK9 (proprotein convertase …); test: BLI Octet Red, 37 C
Procedure: as §2, §3

cynomolgus monkey PCSK9 = cynomolgus monkey PCSK9 (cynomolgus monkey, UniProt A0A7N9D9N8 150-747); test: FRET, competitor EGFA peptide
Description: as §1

[5] = molecular target: T1, human PCSK9 (proprotein convertase …); test: FRET, competitor EGFA peptide
Description: as §1

[6] = molecular target: T2, human PCSK9 (proprotein convertase subtilisin kexin type 9) (human, UniProt Q8NBP7 31-692); test: cell-based or functional assay
[7] = molecular target: T2, human PCSK9 (proprotein convertase …); test: PCSK9:EGFA FRET, competitor EGFA peptide
[8] = molecular target: T2, human PCSK9 (proprotein convertase …); test: SPR (ProteOn), 25 C
[9] = molecular target: T1, human PCSK9 (proprotein convertase …); test: FRET, competitor ATI000972
Description: as §1

[10] = molecular target: T1, human PCSK9 (proprotein convertase …); test: cell-based or functional assay; remark: listed apart in the source

Binder | IC50 [1] | Kd [2] | koff [2] | kon [2] | EC50 [3] | Kd [4] | EC50 (cynomolgus monkey PCSK9) | EC50 [5] | IC50 [5] | LDLR Depletion (% inhibition at 75 nM) [6] | LDLR Depletion EC50 [6] | EC50 [7] | Kd [8] | IC50 [9] | LDLR Depletion EC50 [10] | IC50 (cynomolgus monkey PCSK9)
B1 | 0.5 nM | 0.237 nM | 6.9e-05 s⁻¹ | 266000 M⁻¹ s⁻¹ | 3.7 nM | 0.237 nM | 12 nM | 2.9 nM | 2.9 nM |  |  |  |  |  |  | 
B2 | 0.5 nM | 0.527 nM | 0.00016 s⁻¹ | 309000 M⁻¹ s⁻¹ | 4.2 nM | 0.527 nM | 17.3 nM | 2.4 nM | 2.4 nM |  |  |  |  |  |  | 
B3 | 0.5 nM | 3.29 nM | 0.000831 s⁻¹ | 265000 M⁻¹ s⁻¹ | 8.4 nM | 3.29 nM | 9.8 nM | 2.5 nM | 2.5 nM |  |  |  |  |  |  | 
B4 | 0.9 nM | 4.54 nM | 0.00109 s⁻¹ | 244000 M⁻¹ s⁻¹ | 3.8 nM | 4.54 nM | 14.6 nM | 2.4 nM | 2.4 nM |  |  |  |  |  |  | 
B5 | 1 nM | 4.11 nM | 0.00094 s⁻¹ | 213000 M⁻¹ s⁻¹ | 4.1 nM | 4.11 nM | 27.1 nM | 2.6 nM | 2.6 nM |  |  |  |  |  |  | 
B6 | 0.6 nM | 1.53 nM | 0.000663 s⁻¹ | 354000 M⁻¹ s⁻¹ | 3.3 nM | 1.53 nM | 11.8 nM | 3.3 nM | 3.3 nM |  |  |  |  |  |  | 
B7 | 0.8 nM | 1.59 nM | 0.000522 s⁻¹ | 323000 M⁻¹ s⁻¹ | < 1 nM | 1.59 nM | 26.5 nM | 4 nM | 4 nM |  |  |  |  |  |  | 
B8 | 0.9 nM | 2.49 nM | 0.000879 s⁻¹ | 368000 M⁻¹ s⁻¹ | 3.4 nM | 2.49 nM | 27.2 nM | 4 nM | 4 nM |  |  |  |  |  |  | 
B9 | 0.5 nM | 3.23 nM | 0.00046 s⁻¹ | 136000 M⁻¹ s⁻¹ | 4.1 nM | 3.23 nM | 20.2 nM | 3.4 nM | 3.4 nM |  |  |  |  |  |  | 
B10 | 0.3 nM | 0.677 nM | 0.000557 s⁻¹ | 471000 M⁻¹ s⁻¹ | 3.8 nM | 0.677 nM | 19.8 nM | 3.4 nM | 3.4 nM |  |  |  |  |  |  | 
B11 | 1.1 nM | 1.12 nM | 0.000291 s⁻¹ | 271000 M⁻¹ s⁻¹ | 4.5 nM | 1.12 nM | 25.2 nM | 3.1 nM | 3.1 nM |  |  |  |  |  |  | 
B12 | 0.4 nM | 0.604 nM | 0.00025 s⁻¹ | 436000 M⁻¹ s⁻¹ | 3.8 nM | 0.604 nM | 12.6 nM | 2.8 nM | 2.8 nM |  |  |  |  |  |  | 
B13 | 0.5 nM | 2.94 nM | 0.000596 s⁻¹ | 220000 M⁻¹ s⁻¹ | 3.7 nM | 2.94 nM | 10.8 nM | 2.4 nM | 2.4 nM |  |  |  |  |  |  | 
B14 | 0.5 nM | 1.11 nM | 0.000464 s⁻¹ | 419000 M⁻¹ s⁻¹ | 3.6 nM | 1.11 nM | 20.1 nM | 2.9 nM | 2.9 nM |  |  |  |  |  |  | 
B15 |  |  |  |  |  |  |  |  |  | 105% | 10 nM | 1.2 nM | 0.09 nM |  |  | 
B16 |  |  |  |  |  |  |  |  |  | 178% | 23 nM | 2.3 nM | 0.173 nM |  |  | 
B17 | 0.4 nM | 1.4 nM | 0.000382 s⁻¹ | 288000 M⁻¹ s⁻¹ | 4.6 nM | 1.4 nM | 18.2 nM | 2.6 nM | 2.6 nM |  |  |  |  |  |  | 
B18 |  |  |  |  | 2.3 nM |  | 118 nM | 2.7 nM | 1.3 nM |  |  |  |  | 2.4 nM | 16 nM | 118 nM
B19 | 0.2 nM | 2.08 nM | 0.00094 s⁻¹ | 448000 M⁻¹ s⁻¹ | 13.2 nM | 2.08 nM | 27.1 nM | 0.2 nM | 0.2 nM |  |  |  |  |  |  | 
B20 |  |  |  |  | 1.6 nM |  | 106 nM | 2.01 nM | 2 nM |  |  |  |  | 1.9 nM | 26 nM | 106 nM
B21 | 0.4 nM | 1.27 nM | 0.000435 s⁻¹ | 347000 M⁻¹ s⁻¹ | 5.5 nM | 1.27 nM | 24.7 nM | 1.2 nM | 1.2 nM |  |  |  |  |  |  | 
